Measurements reported in patent US20230265151A1, “GIP/GLP1 CO-AGONIST COMPOUNDS” (priority 2020, published 2023).
Substitutions are numbered along the chain they refer to.

Experiments:
Assay in all cases: cell-based or functional assay
[1] = molecular target: human glucagon receptor (human) (UniProt P47871)
[2] = molecular target: human glucagon-like peptide-1 (GLP-1) receptor (human) (UniProt P43220)
[3] = molecular target: T1, human glucose-dependent insulinotropic polypeptide (GIP) receptor (human) (UniProt P48546)
T1 sequence (looked up): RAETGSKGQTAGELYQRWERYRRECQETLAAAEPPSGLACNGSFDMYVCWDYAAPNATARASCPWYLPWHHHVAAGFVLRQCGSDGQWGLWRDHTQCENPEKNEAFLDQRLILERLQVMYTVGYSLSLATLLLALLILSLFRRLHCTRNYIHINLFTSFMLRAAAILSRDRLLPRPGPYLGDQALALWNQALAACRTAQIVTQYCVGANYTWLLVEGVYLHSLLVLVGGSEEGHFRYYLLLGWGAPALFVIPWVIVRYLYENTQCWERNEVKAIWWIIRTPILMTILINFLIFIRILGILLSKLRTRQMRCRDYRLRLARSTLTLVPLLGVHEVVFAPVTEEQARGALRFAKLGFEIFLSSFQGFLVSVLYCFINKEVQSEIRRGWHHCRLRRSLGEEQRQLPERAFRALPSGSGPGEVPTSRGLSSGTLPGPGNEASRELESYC

human GIP receptor = molecular target: T2, human GIP receptor (human, UniProt P48546 22-466)
T2 sequence (looked up): T1 sequence (looked up)

human GLP-1 receptor = human GLP-1 receptor (human, UniProt P43220 24-463)
human glucagon receptor = human glucagon receptor (human, UniProt P47871 26-477)

B1: Example 220 (peptide)
peptide: YXEGTXTSDXXIXLDXIAQXKFIXXLIKGGPSSGAPPPS
modifications: Y-Aib-EGT-αMeF(2F)-TSD-4Pal-Aib-I-αMeL-LD-Orn-IAQ-Aib-K((2-[2-(2-Amino-ethoxy)-ethoxy]-acetyl)2-(γ-Glu)-CO-(CH2)12-CO2H)FI-(D-Glu)-αMeY-LIK((2-[2-(2-Amino-ethoxy)-ethoxy]-acetyl)2-(γ-Glu)-CO-(CH2)12-CO2H)GGPSSGAPPPS-NH2
- cAMP EC50 [1]: > 9950 nM
- cAMP EC50 [2]: 0.535 nM
- cAMP Emax [2]: 87.6%
- cAMP EC50 [3]: 0.0237 nM
- cAMP Emax [3]: 91.6%
- cAMP EC50 (1.0% HSA) (human GIP receptor): 11.6 nM
- cAMP Emax (1.0% HSA) (human GIP receptor): 83.5%
- cAMP EC50 (1.0% HSA) (human GLP-1 receptor): 150 nM
- cAMP Emax (1.0% HSA) (human GLP-1 receptor): 110%
- cAMP EC50 (1.0% HSA) (human glucagon receptor): > 9950 nM

B2: Example 237 (peptide)
peptide: B1 peptide with X10Y, I17K, K21E
modifications: Y-Aib-EGT-αMeF(2F)-TSDY-Aib-I-αMeL-LD-Orn-K((2-[2-(2-Amino-ethoxy)-ethoxy]-acetyl)2-(γ-Glu)-(10-(4-carboxyphenoxy)decanoyl))AQ-Aib-EFI-(D-Glu)-αMeY-LIK((2-[2-(2-Amino-ethoxy)-ethoxy]-acetyl)2-(γ-Glu)-(10-(4-carboxyphenoxy)decanoyl))GGPSSGAPPPS-NH2
- cAMP EC50 [1]: > 9950 nM
- cAMP EC50 [2]: 0.633 nM
- cAMP Emax [2]: 102%
- cAMP EC50 [3]: 0.0186 nM
- cAMP Emax [3]: 102%
- cAMP EC50 (1.0% HSA) (human GIP receptor): 0.889 nM
- cAMP Emax (1.0% HSA) (human GIP receptor): 93.1%
- cAMP EC50 (1.0% HSA) (human GLP-1 receptor): 38.1 nM
- cAMP EC50 (1.0% HSA) (human glucagon receptor): > 9950 nM

B3: Example 244 (peptide)
peptide: B1 peptide with I17K, K21E
modifications: Y-Aib-EGT-αMeF(2F)-TSD-4Pal-Aib-I-αMeL-LD-Orn-K((2-[2-(2-Amino-ethoxy)-ethoxy]-acetyl)2-(γ-Glu)-(10-(4-carboxyphenoxy)decanoyl))AQ-Aib-EFI-(D-Glu)-αMeY-LIK((2-[2-(2-Amino-ethoxy)-ethoxy]-acetyl)2-(γ-Glu)-(10-(4-carboxyphenoxy)decanoyl))GGPSSGAPPPS-NH2
- cAMP EC50 [1]: > 9950 nM
- cAMP EC50 [2]: 2.25 nM
- cAMP Emax [2]: 104%
- cAMP EC50 [3]: 0.0218 nM
- cAMP Emax [3]: 101%
- cAMP EC50 (1.0% HSA) (human GIP receptor): 0.983 nM
- cAMP EC50 (1.0% HSA) (human GLP-1 receptor): 30.8 nM

B4: Example 230 (peptide)
peptide: B1 peptide with X10Y, I17K, K28E
modifications: Y-Aib-EGT-αMeF(2F)-TSDY-Aib-I-αMeL-LD-Orn-K((2-[2-(2-Amino-ethoxy)-ethoxy]-acetyl)2-(γ-Glu)-CO-(CH2)12-CO2H)AQ-Aib-K((2-[2-(2-Amino-ethoxy)-ethoxy]-acetyl)2-(γ-Glu)-CO-(CH2)12-CO2H)FI-(D-Glu)-αMeY-LIEGGPSSGAPPPS-NH2
- cAMP EC50 [1]: > 9950 nM
- cAMP EC50 [2]: 0.726 nM
- cAMP Emax [2]: 90.3%
- cAMP EC50 [3]: 0.0199 nM
- cAMP Emax [3]: 105%
- cAMP EC50 (1.0% HSA) (human GIP receptor): 2.57 nM
- cAMP Emax (1.0% HSA) (human GIP receptor): 85.8%
- cAMP EC50 (1.0% HSA) (human GLP-1 receptor): 49.7 nM
- cAMP EC50 (1.0% HSA) (human glucagon receptor): > 9950 nM

B5: Example 234 (peptide)
peptide: B1 peptide with X10Y
modifications: Y-Aib-EGT-αMeF(2F)-TSDY-Aib-I-αMeL-LD-Orn-IAQ-Aib-K((2-[2-(2-Amino-ethoxy)-ethoxy]-acetyl)2-(γ-Glu)-CO-(CH2)12-CO2H)Fl-(D-Glu)-αMeY-LIK((2-[2-(2-Amino-ethoxy)-ethoxy]-acetyl)2-(γ-Glu)-CO-(CH2)12-CO2H)GGPSSGAPPPS-NH2
- cAMP EC50 [1]: > 9950 nM
- cAMP EC50 [2]: 0.319 nM
- cAMP Emax [2]: 112%
- cAMP EC50 [3]: 0.0182 nM
- cAMP Emax [3]: 107%
- cAMP EC50 (1.0% HSA) (human GIP receptor): 7.58 nM
- cAMP Emax (1.0% HSA) (human GIP receptor): 84.4%
- cAMP EC50 (1.0% HSA) (human GLP-1 receptor): 156 nM
- cAMP Emax (1.0% HSA) (human GLP-1 receptor): 102%
- cAMP EC50 (1.0% HSA) (human glucagon receptor): > 9950 nM

B6: Example 231 (peptide)
peptide: B1 peptide with X10Y, I17K, K21E
modifications: Y-Aib-EGT-αMeF(2F)-TSDY-Aib-I-αMeL-LD-Orn-K((2-[2-(2-Amino-ethoxy)-ethoxy]-acetyl)2-(γ-Glu)-CO-(CH2)12-CO2H)AQ-Aib-EFI-(D-Glu)-αMeY-LIK((2-[2-(2-Amino-ethoxy)-ethoxy]-acetyl)2-(γ-Glu)-CO-(CH2)12-CO2H)GGPSSGAPPPS-NH2
- cAMP EC50 [1]: > 9950 nM
- cAMP EC50 [2]: 1.22 nM
- cAMP Emax [2]: 107%
- cAMP EC50 [3]: 0.0184 nM
- cAMP Emax [3]: 102%
- cAMP EC50 (1.0% HSA) (human GIP receptor): 2.46 nM
- cAMP Emax (1.0% HSA) (human GIP receptor): 85.4%
- cAMP EC50 (1.0% HSA) (human GLP-1 receptor): 51.8 nM
- cAMP EC50 (1.0% HSA) (human glucagon receptor): > 9950 nM

B7: Example 236 (peptide)
peptide: B1 peptide with X10Y, I17K, K28E
modifications: Y-Aib-EGT-αMeF(2F)-TSDY-Aib-I-αMeL-LD-Orn-K((2-[2-(2-Amino-ethoxy)-ethoxy]-acetyl)2-(γ-Glu)-(10-(4-carboxyphenoxy)decanoyl))AQ-Aib-K((2-[2-(2-Amino-ethoxy)-ethoxy]-acetyl)2-(γ-Glu)-(10-(4-carboxyphenoxy)decanoyl))FI-(D-Glu)-αMeY-LIEGGPSSGAPPPS-NH2
- cAMP EC50 [1]: > 9950 nM
- cAMP EC50 [2]: 0.336 nM
- cAMP Emax [2]: 96.5%
- cAMP EC50 [3]: 0.0154 nM
- cAMP Emax [3]: 104%
- cAMP EC50 (1.0% HSA) (human GIP receptor): 0.641 nM
- cAMP Emax (1.0% HSA) (human GIP receptor): 80.5%
- cAMP EC50 (1.0% HSA) (human GLP-1 receptor): 32.6 nM
- cAMP Emax (1.0% HSA) (human GLP-1 receptor): 125%
- cAMP EC50 (1.0% HSA) (human glucagon receptor): > 9950 nM

B8: Example 240 (peptide)
peptide: B1 peptide with X10Y
modifications: Y-Aib-EGT-αMeF(2F)-TSDY-Aib-I-αMeL-LD-Orn-IAQ-Aib-K((2-[2-(2-Amino-ethoxy)-ethoxy]-acetyl)2-(γ-Glu)-(10-(4-carboxyphenoxy)decanoyl))FI-(D-Glu)-αMeY-LIK((2-[2-(2-Amino-ethoxy)-ethoxy]-acetyl)2-(γ-Glu)-(10-(4-carboxyphenoxy)decanoyl))GGPSSGAPPPS-NH2
- cAMP EC50 [1]: > 9950 nM
- cAMP EC50 [2]: 0.508 nM
- cAMP Emax [2]: 98.5%
- cAMP EC50 [3]: 0.0237 nM
- cAMP Emax [3]: 99.1%
- cAMP EC50 (1.0% HSA) (human GIP receptor): 11.7 nM
- cAMP Emax (1.0% HSA) (human GIP receptor): 87.2%
- cAMP EC50 (1.0% HSA) (human GLP-1 receptor): 150 nM
- cAMP Emax (1.0% HSA) (human GLP-1 receptor): 107%
- cAMP EC50 (1.0% HSA) (human glucagon receptor): > 9950 nM
